Source: US20220002344A1 (CENTRE NATIONAL DE LA RECHERCHE SCIENTIFIQUE, published 2022)
Square brackets hold non-standard residues; d marks the D form. Ends that are not written are not given here. * marks the point of attachment. FITC = O=C1OC2(c3ccc(O)cc3Oc3cc(O)ccc32)c2ccc(NC(=S)*)cc21; Cha = N[C@@H](CC1CCCCC1)C(=O)O

B1: P28 (Onc112), VDKPPYLPRPRPPRrIYNr-NH2 (peptide)
peptide: VDKPPYLPRPRPPR[dR]IYN[dR]-NH2
notes: also called CA3 28; CA3-28
B2: P150 (FITC-Py-P7), FITC-…haDLF-OH (peptide)
peptide: {FITC}-KVDKGSYLPRPTPPRPIYNRNGPRQ[Cha]DLF-OH
notes: also called FITC-K-Py-P7; CA2-150
B3: CM1-76 (P7-Onc112), AcQChaDLF-GPR-Onc112-NH2 (peptide)
peptide: Ac-Q[Cha]DLFGPRVDKPPYLPRPRPPR[dR]IYN[dR]-NH2
SMILES: CC[C@H](C)[C@H](NC(=O)[C@@H](CCCNC(=N)N)NC(=O)[C@H](CCCNC(=N)N)NC(=O)[C@@H]1CCCN1C(=O)[C@@H]1CCCN1C(=O)[C@H](CCCNC(=N)N)NC(=O)[C@@H]1CCCN1C(=O)[C@H](CCCNC(=N)N)NC(=O)[C@@H]1CCCN1C(=O)[C@H](CC(C)C)NC(=O)[C@H](Cc1ccc(O)cc1)NC(=O)[C@@H]1CCCN1C(=O)[C@@H]1CCCN1C(=O)[C@H](CCCCN)NC(=O)[C@H](CC(=O)O)NC(=O)[C@@H](NC(=O)[C@H](CCCNC(=N)N)NC(=O)[C@@H]1CCCN1C(=O)CNC(=O)[C@H](Cc1ccccc1)NC(=O)[C@H](CC(C)C)NC(=O)[C@H](CC(=O)O)NC(=O)[C@H](CC1CCCCC1)NC(=O)[C@H](CCC(N)=O)NC(C)=O)C(C)C)C(=O)N[C@@H](Cc1ccc(O)cc1)C(=O)N[C@@H](CC(N)=O)C(=O)N[C@H](CCCNC(=N)N)C(N)=O
B4: P122 (FITC-Py), FITC-KVDKGSYLPRPTPPRPIYNRN-NH2 (peptide)
peptide: {FITC}-KVDKGSYLPRPTPPRPIYNRN-NH2
modifications: ends and bridges not checked
notes: also called FITC-K-Py; FITC-K-Pyr
B5: P30 (Onc112-P7), VDKPPYLPRPRPPRrIYNrNGPRQChaDLF-OH (peptide)
peptide: VDKPPYLPRPRPPR[dR]IYN[dR]NGPRQ[Cha]DLF-OH
notes: Fusion of Onc112 and P7; the printed Mw 3472.08 agrees with that N; also called CA3-30; Onc-P7
B6: P72 (FITC-Py-P7Scr), FITC-…haFQLD-OH (peptide)
peptide: {FITC}-KVDKGSYLPRPTPPRPIYNRNGPR[Cha]FQLD-OH
notes: also called FITC-K-Py-P7Scr; CA4-72
B7: P7 (Ac-QChaDLF-OH) (peptide)
peptide: Ac-Q[Cha]DLF-OH
SMILES: CC(=O)N[C@@H](CCC(N)=O)C(=O)N[C@@H](CC1CCCCC1)C(=O)N[C@@H](CC(=O)O)C(=O)N[C@@H](CC(C)C)C(=O)N[C@@H](Cc1ccccc1)C(=O)O
notes: also called CA2 68; AcQXDLF
B8: P116 (Py-P7), …haDLF-OH (peptide)
peptide: VDKGSYLPRPTPPRPIYNRNGPRQ[Cha]DLF-OH
modifications: N-terminus assumed
SMILES: CC[C@H](C)[C@H](NC(=O)[C@@H]1CCCN1C(=O)[C@H](CCCNC(=N)N)NC(=O)[C@@H]1CCCN1C(=O)[C@@H]1CCCN1C(=O)[C@@H](NC(=O)[C@@H]1CCCN1C(=O)[C@H](CCCNC(=N)N)NC(=O)[C@@H]1CCCN1C(=O)[C@H](CC(C)C)NC(=O)[C@H](Cc1ccc(O)cc1)NC(=O)[C@H](CO)NC(=O)CNC(=O)[C@H](CCCCN)NC(=O)[C@H](CC(=O)O)NC(=O)[C@@H](N)C(C)C)[C@@H](C)O)C(=O)N[C@@H](Cc1ccc(O)cc1)C(=O)N[C@@H](CC(N)=O)C(=O)N[C@@H](CCCNC(=N)N)C(=O)N[C@@H](CC(N)=O)C(=O)NCC(=O)N1CCC[C@H]1C(=O)N[C@@H](CCCNC(=N)N)C(=O)N[C@@H](CCC(N)=O)C(=O)N[C@@H](CC1CCCCC1)C(=O)N[C@@H](CC(=O)O)C(=O)N[C@@H](CC(C)C)C(=O)N[C@@H](Cc1ccccc1)C(=O)O
notes: Fusion of pyrrhocoricin, GPR linker and P7
B9: Py (Pyrrhocoricin), VDKGSYLPRPTPPRPIYNRN-NH2 (peptide)
peptide: VDKGSYLPRPTPPRPIYNRN-NH2
notes: Bought from Novopro; also called unglycosylated pyrrhocoricin
B10: P120 (Onc112-P7Scr), VDKPPYLPRPRPPRrIYNrNGPRChaFQLD-OH (peptide)
peptide: VDKPPYLPRPRPPR[dR]IYN[dR]NGPR[Cha]FQLD-OH
notes: Control fusion peptide with scrambled P7; also called Onc112-Scr

Key:
[1] = target: T1, E. coli 70S ribosome particle (E. coli); test: ITC, 30 °C, peptide titrated into E. coli 70S ribosome
T1 construct: also called ^Ec70S

[2] = target: T2, E. coli sliding clamp (DnaN protein, β subunit of DNA polymerase III) (E. coli, UniProt P0A988 1-366); test: ITC, 30 °C
T2 construct: Recombinant DnaN for ITC (a tag from pET15b is implied by the Ni-NTA step but not described); also called ^EcSC; SC
T2 sequence (P0A988 whole entry): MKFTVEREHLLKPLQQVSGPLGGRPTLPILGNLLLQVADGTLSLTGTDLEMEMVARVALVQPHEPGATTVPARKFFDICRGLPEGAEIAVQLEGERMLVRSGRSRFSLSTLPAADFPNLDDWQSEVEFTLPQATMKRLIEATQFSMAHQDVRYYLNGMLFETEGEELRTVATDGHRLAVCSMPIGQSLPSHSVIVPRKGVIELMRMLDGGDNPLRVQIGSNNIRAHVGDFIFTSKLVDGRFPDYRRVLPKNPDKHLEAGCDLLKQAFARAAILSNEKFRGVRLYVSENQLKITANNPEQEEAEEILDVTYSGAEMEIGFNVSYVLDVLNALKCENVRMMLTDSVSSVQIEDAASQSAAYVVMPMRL

[3] = target: T1, E. coli 70S ribosome particle; test: ITC, 30 °C as the table's head says, E. coli ribosome
[4] = target: T1, E. coli 70S ribosome particle; test: ITC, 30 °C, against Py on the 70S ribosome
[5] = target: T1, E. coli 70S ribosome particle; test: ITC, E. coli ribosome (70S)
[6] = target: T1, E. coli 70S ribosome particle; test: ITC, 30 °C, peptide titrated into E. coli 70S ribosome; values not well defined (footnote *)
[7] = target: T2, E. coli sliding clamp (DnaN protein, β …); test: ITC, 30 °C, peptide titrated into E. coli SC
[8] = target: T2, E. coli sliding clamp (DnaN protein, β …); test: ITC, 25 °C, E. coli SC (beta ring)
[9] = target: T1, E. coli 70S ribosome particle; test: ITC, 30 °C, against the same peptide on E. coli SC
[10] = target: T3, Human PCNA (Proliferating Cell Nuclear Antigen) (Human, UniProt P12004 1-261); test: ITC, 30 °C
T3 construct: Source and limits of the construct are not described
T3 sequence (P12004 whole entry): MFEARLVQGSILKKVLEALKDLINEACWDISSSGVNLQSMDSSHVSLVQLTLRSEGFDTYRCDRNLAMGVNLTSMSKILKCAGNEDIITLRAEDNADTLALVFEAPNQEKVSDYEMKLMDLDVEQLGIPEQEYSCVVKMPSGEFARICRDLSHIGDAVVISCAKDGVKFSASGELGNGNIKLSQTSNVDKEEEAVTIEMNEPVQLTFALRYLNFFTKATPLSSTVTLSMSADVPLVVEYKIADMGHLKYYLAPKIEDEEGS

[11] = target: T2, E. coli sliding clamp (DnaN protein, β …); test: ITC, 30 °C, E. coli SC

Row | Binder | -TΔS [1] [kcal/mol] | Kd [1] [nM] | ΔG [1] [kcal/mol] | ΔH [1] [kcal/mol] | binding result [2] | -TΔS [6] [kcal/mol] | ΔG [6] [kcal/mol] | ΔH [6] [kcal/mol] | -TΔS [7] [kcal/mol] | Kd [7] [nM] | ΔG [7] [kcal/mol] | ΔH [7] [kcal/mol] | Kd [8] [nM] | n [8] | ΔG [8] [kcal/mol] | ΔH [8] [kcal/mol] | further results
1 | B1 | 14 | 84 | -9.82 | -23.9 | no binding | – | – | – | – | – | – | – | – | – | – | – | Kd [3]: 241 nM; ΔG [3]: -9.2 kcal/mol; ΔH [3]: -16.2 kcal/mol; fold lower affinity than Py [4]: 5 fold; Kd [5]: 241 nM; n [5]: 1; ΔG [5]: -9.2 kcal/mol; ΔH [5]: -16.2 kcal/mol
2 | B2 | – | – | – | – | – | 6.7 | -6.27 | -13 | 8.21 | 390 | -8.99 | -17.2 | – | – | – | – | –
3 | B3 | – | – | – | – | – | – | – | – | – | – | – | – | 258 | 1 | -9 | -10.7 | –
4 | B4 | – | – | – | – | no binding | 13.3 | -6.91 | -20.1 | – | – | – | – | – | – | – | – | –
5 | B5 | 15.7 | 70.4 | -9.92 | -25.6 | – | – | – | – | 4.2 | 205 | -9.28 | -13.5 | 180 | 0.9 | -9.2 | -14.6 | fold higher affinity for the ribosome than for SC [9]: 3 fold
6 | B6 | – | – | – | – | no binding | 2.94 | -5.98 | -8.92 | – | – | – | – | – | – | – | – | –
7 | B7 | – | – | – | – | – | – | – | – | 4.71 | 332 | -9 | -13.7 | 170 | 0.9 | -9.2 | -15.4 | binding result [10]: no binding; Kd [11]: 408 nM; n [11]: 1; ΔH [11]: -12.1 kcal/mol
8 | B8 | 12 | 37 | -10.3 | -22.3 | – | – | – | – | 4.3 | 119 | -9.61 | -13.9 | – | – | – | – | fold higher affinity for the ribosome than for SC [9]: 3 fold
9 | B9 | 8.23 | 15.5 | -10.9 | -19.2 | no binding | – | – | – | – | – | – | – | – | – | – | – | –
10 | B10 | 3.12 | 101 | -9.85 | -13 | no binding | – | – | – | – | – | – | – | – | – | – | – | –
